Laboratory results from doi:10.1101/2023.04.30.538836.

Molecular target: PlsB from Themomonas haemolytica (Themomonas haemolytica)
Assay: cryo-EM structure

PlsB from Themomonas haemolytica (enzyme)
stoichiometry N: 2
